Experimental data: paper PMC9529352

Target: N protein WT (SARS-CoV-2, UniProt P0DTC9 1-419)
Assay: mass photometry
Conditions: protein: recombinant; tags: 6xHis-SUMO tag cleaved by Ulp1; chain copies: 12; hairpin

B1: SL8 RNA (structured_RNA)
RNA: GAUGGCACUUGUGGCUUAGUAGAAGUUGAAAAAGGCGUUUUGCCUCAACUUGAACAGCCCUAUGUGUUCAUC
binding result: binds
